Six sequences from the supplement of paper PMC5998384 can be followed below.

Series [1] relates to HeLa Kyoto. The series can be described thus: melting temperature (median over replicates), in situ; higher = more thermally stable.
In series [2] the test system is HeLa Kyoto. Nature of the series: solubility change mitosis vs G1/S (difference of NP-40 vs SDS log2 ratios) (log2 ratio difference); higher = more soluble in mitosis.
Series [3] relates to HeLa Kyoto. Nature of the series: thermal stability score vs G1/S (z-score of summed log2 fold changes over temperatures); higher = more thermally stable than in G1/S.
Series [4] concerns HeLa Kyoto. Nature of the series: solubility in G1/S (NP-40 vs SDS abundance) (log2 ratio); higher = more soluble. The settings on record: cell cycle stage: G1/S.
[5] abbreviates: cell cycle stage: early G1 (4.5 h after nocodazole release).
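Throughout, for melting temperature (median over replicates), in situ: HeLa Kyoto cells synchronized by double thymidine or nocodazole block, proteins quantified by TMT10plex mass spectrometry, three independent biological replicates.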
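Throughout, for solubility change mitosis vs G1/S (difference of NP-40 vs SDS log2 ratios): synchronized HeLa Kyoto cells (double thymidine block for G1/S, nocodazole release for mitosis), protein amounts in NP-40 versus SDS lysates quantified by mass spectrometry, three biological replicates.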
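Throughout, for solubility in G1/S (NP-40 vs SDS abundance): HeLa Kyoto cells arrested at G1/S by double thymidine block, proteins quantified by TMT10plex mass spectrometry in mild NP-40 versus SDS extracts, three biological replicates.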
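Throughout, for thermal stability score vs G1/S (z-score of summed log2 fold changes over temperatures): synchronized HeLa Kyoto cells, proteins quantified by TMT10plex mass spectrometry, three biological replicates, mitosis taken 0.5 h after nocodazole release, G1/S directly after double thymidine block.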

For the sequence “MASIMEGPLSKWTNVMKGWQYRWFVLDYNAGLLSYYTSKDKMMRGSRRGCVRLRGAVIGIDDEDDSTFTITVDQKTFHFQARDADEREKWIHALEETILRHTLQLQGLDSGFVPSVQDFDKKLTEADAYLQILIEQLKLFDDKLQNCKEDEQRKKIETLKETTNSMVESIKHCIVLLQIAKDQSNAEKHADGMISTINPVDAIYQPSPLEPVISTMPSQTVLPPEPVQLCKSEQRPSSLPVGPVLATLGHHQTPTPNSTGSGHSPPSSSLTSPSHVNLSPNTVPEFSYSSSEDEFYDADEFHQSGSSPKRLIDSSGSASVLTHSSSGNSLKRPDTTESLNSSLSNGTSDADLFDSHDDRDDDAEAGSVEEHKSVIMHLLSQVRLGMDLTKVVLPTFILERRSLLEMYADFFAHPDLFVSISDQKDPKDRMVQVVKWYLSAFHAGRKGSVAKKPYNPILGEIFQCHWTLPNDTEENTELVSEGPVPWVSKNSVTFVAEQVSHHPPISAFYAECFNKKIQFNAHIWTKSKFLGMSIGVHNIGQGCVSCLDYDEHYILTFPNGYGRSILTVPWVELGGECNINCSKTGYSANIIFHTKPFYGGKKHRITAEIFSPNDKKSFCSIEGEWNGVMYAKYATGENTVFVDTKKLPIIKKKVRKLEDQNEYESRSLWKDVTFNLKIRDIDAATEAKHRLEERQRAEARERKEKEIQWETRLFHEDGECWVYDEPLLKRLGAAKH [OSBPL9]”, the melting temperature stood at 48.7 °C with HeLa Kyoto [1] (cell cycle stage: G1/S) and 49.2 °C in the series on HeLa Kyoto [1] (cell cycle stage: mitosis). In the series with HeLa Kyoto [2], the “solubility change mitosis (log2)” value was -0.142. In addition, the thermal stability score with HeLa Kyoto [3] (setting [5]) worked out at 0.00752; in the series on HeLa Kyoto [3] (cell cycle stage: mitosis), 0.954. The “solubility in G1/S (log2)” value in the series on HeLa Kyoto [4] was -0.0574.
Regarding “MASLLAKDAYLQSLAKKICSHSAPEQQARTRAGKTQGSETAGPPKKKRKKTQKKFRKREEKAAEHKAKSLGEKSPAASGARRPEAAKEEAAWASSSAGNPADGLATEPESVFALDVLRQRLHEKIQEARGQGSAKELSPAALEKRRRRKQERDRKKRKRKELRAKEKARKAEEATEAQEVVEATPEGACTEPREPPGLIFNKVEVSEDEPASKAQRRKEKRQRVKGNLTPLTGRNYRQLLERLQARQSRLDELRGQDEGKAQELEAKMKWTNLLYKAEGVKIRDDERLLQEALKRKEKRRAQRQRRWEKRTAGVVEKMQQRQDRRRQNLRRKKAARAERRLLRARKKGRILPQDLERAGLV [SURF6]”, the melting temperature was 56.5 °C in the series on HeLa Kyoto [1] (cell cycle stage: G1/S) and 54.5 °C in the series with HeLa Kyoto [1] (cell cycle stage: mitosis). The “solubility change mitosis (log2)” value in the series with HeLa Kyoto [2] worked out at 1.25. Also, the thermal stability score in the series on HeLa Kyoto [3] (setting [5]) is -2.48; in the series on HeLa Kyoto [3] (cell cycle stage: mitosis) it was -6.87. The “solubility in G1/S (log2)” value in the series with HeLa Kyoto [4] is -1.46.
Regarding “MASMAAAIAASRSAVMSGNRPLDDRERKRFTYFSSLSPMARKIMQDKEKIREKYGPEWARLPPAQQDEIIDRCLVGPRAPAPRDPGDSEELTRFPGLRGPTGQKVVRFGDEDLTWQDEHSAPFSWETKSQMEFSISALSIQEPSNGTAASEPRPLSKASQGSQALKSSQGSRSSSLDALGPTRKEEEASFWKINAERSRGEGPEAEFQSLTPSQIKSMEKGEKVLPPCYRQEPAPKDREAKVERPSTLRQEQRPLPNVSTERERPQPVQAFSSALHEAAPSQLEGKLPSPDVRQDDGEDTLFSEPKFAQVSSSNVVLKTGFDFLDNW [C1ORF198]”, the melting temperature in the series with HeLa Kyoto [1] (cell cycle stage: G1/S) turned out to be 51.6 °C; in the series with HeLa Kyoto [1] (cell cycle stage: mitosis), 53.2 °C. For the same sequence, the “solubility change mitosis (log2)” value in the series on HeLa Kyoto [2] was 0.253. Further, the thermal stability score is -0.542 in the series on HeLa Kyoto [3] (setting [5]) and -1 in the series with HeLa Kyoto [3] (cell cycle stage: mitosis). Besides, the “solubility in G1/S (log2)” value in the series with HeLa Kyoto [4] was -0.228.
For “MASNDYTQQATQSYGAYPTQPGQGYSQQSSQPYGQQSYSGYSQSTDTSGYGQSSYSSYGQSQNTGYGTQSTPQGYGSTGGYGSSQSSQSSYGQQSSYPGYGQQPAPSSTSGSYGSSSQSSSYGQPQSGSYSQQPSYGGQQQSYGQQQSYNPPQGYGQQNQYNSSSGGGGGGGGGGNYGQDQSSMSSGGGSGGGYGNQDQSGGGGSGGYGQQDRGGRGRGGSGGGGGGGGGGYNRSSGGYEPRGRGGGRGGRGGMGGSDRGGFNKFGGPRDQGSRHDSEQDNSDNNTIFVQGLGENVTIESVADYFKQIGIIKTNKKTGQPMINLYTDRETGKLKGEATVSFDDPPSAKAAIDWFDGKEFSGNPIKVSFATRRADFNRGGGNGRGGRGRGGPMGRGGYGGGGSGGGGRGGFPSGGGGGGGQQRAGDWKCPNPTCENMNFSWRNECNQCKAPKPDGPGGGPGGSHMGGNYGDDRRGGRGGYDRGGYRGRGGDRGGFRGGRGGGDRGGFGPGKMDSRGEHRQDRRERPY [FUS]”, the melting temperature is 56.1 °C in the series with HeLa Kyoto [1] (cell cycle stage: G1/S) and 54.8 °C in the series with HeLa Kyoto [1] (cell cycle stage: mitosis). Also, the “solubility change mitosis (log2)” value in the series with HeLa Kyoto [2] was found to be 0.333. Moreover, the thermal stability score in the series with HeLa Kyoto [3] (setting [5]) was 0.878; in the series on HeLa Kyoto [3] (cell cycle stage: mitosis), -3.18. In addition, the “solubility in G1/S (log2)” value in the series with HeLa Kyoto [4] is -0.295.
Regarding “MASPPRHGPPGPASGDGPNLNNNNNNNNHSVRKCGYLRKQKHGHKRFFVLRGPGAGGDEATAGGGSAPQPPRLEYYESEKKWRSKAGAPKRVIALDCCLNINKRADAKHKYLIALYTKDEYFAVAAENEQEQEGWYRALTDLVSEGRAAAGDAPPAAAPAASCSASLPGALGGSAGAAGAEDSYGLVAPATAAYREVWQVNLKPKGLGQSKNLTGVYRLCLSARTIGFVKLNCEQPSVTLQLMNIRRCGHSDSFFFIEVGRSAVTGPGELWMQADDSVVAQNIHETILEAMKALKELFEFRPRSKSQSSGSSATHPISVPGARRHHHLVNLPPSQTGLVRRSRTDSLAATPPAAKCSSCRVRTASEGDGGAAAGAAAAGARPVSVAGSPLSPGPVRAPLSRSHTLSGGCGGRGSKVALLPAGGALQHSRSMSMPVAHSPPAATSPGSLSSSSGHGSGSYPPPPGPHPPLPHPLHHGPGQRPSSGSASASGSPSDPGFMSLDEYGSSPGDLRAFCSHRSNTPESIAETPPARDGGGGGEFYGYMTMDRPLSHCGRSYRRVSGDAAQDLDRGLRKRTYSLTTPARQRPVPQPSSASLDEYTLMRATFSGSAGRLCPSCPASSPKVAYHPYPEDYGDIEIGSHRSSSSNLGADDGYMPMTPGAALAGSGSGSCRSDDYMPMSPASVSAPKQILQPRAAAAAAAAVPSAGPAGPAPTSAAGRTFPASGGGYKASSPAESSPEDSGYMRMWCGSKLSMEHADGKLLPNGDYLNVSPSDAVTTGTPPDFFSAALHPGGEPLRGVPGCCYSSLPRSYKAPYTCGGDSDQYVLMSSPVGRILEEERLEPQATPGPSQAASAFGAGPTQPPHPVVPSPVRPSGGRPEGFLGQRGRAVRPTRLSLEGLPSLPSMHEYPLPPEPKSPGEYINIDFGEPGARLSPPAPPLLASAASSSSLLSASSPASSLGSGTPGTSSDSRQRSPLSDYMNLDFSSPKSPKPGAPSGHPVGSLDGLLSPEASSPYPPLPPRPSASPSSSLQPPPPPPAPGELYRLPPASAVATAQGPGAASSLSSDTGDNGDYTEMAFGVAATPPQPIAAPPKPEAARVASPTSGVKRLSLMEQVSGVEAFLQASQPPDPHRGAKVIRADPQGGRRRHSSETFSSTTTVTPVSPSFAHNPKRHNSASVENVSLRKSSEGGVGVGPGGGDEPPTSPRQLQPAPPLAPQGRPWTPGQPGGLVGCPGSGGSPMRRETSAGFQNGLNYIAIDVREEPGLPPQPQPPPPPLPQPGDKSSWGRTRSLGGLISAVGVGSTGGGCGGPGPGALPPANTYASIDFLSHHLKEATIVKE [IRS2]”, the melting temperature in the series with HeLa Kyoto [1] (cell cycle stage: G1/S) came to 50.4 °C; in the series with HeLa Kyoto [1] (cell cycle stage: mitosis), 50.3 °C. Besides, the “solubility change mitosis (log2)” value with HeLa Kyoto [2] was -0.0828. The thermal stability score is -0.748 in the series with HeLa Kyoto [3] (setting [5]) and 0.717 in the series on HeLa Kyoto [3] (cell cycle stage: mitosis). Further, in the series on HeLa Kyoto [4], the “solubility in G1/S (log2)” value was -0.000472.
As to “MASPSLERPEKGAGKSEFRNQKPKPENQDESELLTVPDGWKEPAFSKEDNPRGLLEESSFATLFPKYREAYLKECWPLVQKALNEHHVNATLDLIEGSMTVCTTKKTFDPYIIIRARDLIKLLARSVSFEQAVRILQDDVACDIIKIGSLVRNKERFVKRRQRLIGPKGSTLKALELLTNCYIMVQGNTVSAIGPFSGLKEVRKVVLDTMKNIHPIYNIKSLMIKRELAKDSELRSQSWERFLPQFKHKNVNKRKEPKKKTVKKEYTPFPPPQPESQIDKELASGEYFLKANQKKRQKMEAIKAKQAEAISKRQEERNKAFIPPKEKPIVKPKEASTETKIDVASIKEKVKKAKNKKLGALTAEEIALKMEADEKKKKKKK [KRR1]”, the melting temperature came out at 51.3 °C in the series with HeLa Kyoto [1] (cell cycle stage: G1/S) and 50.1 °C with HeLa Kyoto [1] (cell cycle stage: mitosis). Also, the “solubility change mitosis (log2)” value with HeLa Kyoto [2] turned out to be 0.79. Besides, the thermal stability score turned out to be 3.32 with HeLa Kyoto [3] (setting [5]) and 4.5 in the series with HeLa Kyoto [3] (cell cycle stage: mitosis). Besides, in the series with HeLa Kyoto [4], the “solubility in G1/S (log2)” value is -1.22.
